Experiments:
monkey C5-mmh [1] = biological target: T1, monkey C5-mmh (monkey, UniProt P01031 19-1676 (human entry), limits assumed); test: SPR (Biacore), mAb captured, dissociation of monkey C5 at pH7.4 vs pH6.0, 25°C
T1 construct: recombinant, with C-terminal myc-myc-hexahistidine tag
T1 chain: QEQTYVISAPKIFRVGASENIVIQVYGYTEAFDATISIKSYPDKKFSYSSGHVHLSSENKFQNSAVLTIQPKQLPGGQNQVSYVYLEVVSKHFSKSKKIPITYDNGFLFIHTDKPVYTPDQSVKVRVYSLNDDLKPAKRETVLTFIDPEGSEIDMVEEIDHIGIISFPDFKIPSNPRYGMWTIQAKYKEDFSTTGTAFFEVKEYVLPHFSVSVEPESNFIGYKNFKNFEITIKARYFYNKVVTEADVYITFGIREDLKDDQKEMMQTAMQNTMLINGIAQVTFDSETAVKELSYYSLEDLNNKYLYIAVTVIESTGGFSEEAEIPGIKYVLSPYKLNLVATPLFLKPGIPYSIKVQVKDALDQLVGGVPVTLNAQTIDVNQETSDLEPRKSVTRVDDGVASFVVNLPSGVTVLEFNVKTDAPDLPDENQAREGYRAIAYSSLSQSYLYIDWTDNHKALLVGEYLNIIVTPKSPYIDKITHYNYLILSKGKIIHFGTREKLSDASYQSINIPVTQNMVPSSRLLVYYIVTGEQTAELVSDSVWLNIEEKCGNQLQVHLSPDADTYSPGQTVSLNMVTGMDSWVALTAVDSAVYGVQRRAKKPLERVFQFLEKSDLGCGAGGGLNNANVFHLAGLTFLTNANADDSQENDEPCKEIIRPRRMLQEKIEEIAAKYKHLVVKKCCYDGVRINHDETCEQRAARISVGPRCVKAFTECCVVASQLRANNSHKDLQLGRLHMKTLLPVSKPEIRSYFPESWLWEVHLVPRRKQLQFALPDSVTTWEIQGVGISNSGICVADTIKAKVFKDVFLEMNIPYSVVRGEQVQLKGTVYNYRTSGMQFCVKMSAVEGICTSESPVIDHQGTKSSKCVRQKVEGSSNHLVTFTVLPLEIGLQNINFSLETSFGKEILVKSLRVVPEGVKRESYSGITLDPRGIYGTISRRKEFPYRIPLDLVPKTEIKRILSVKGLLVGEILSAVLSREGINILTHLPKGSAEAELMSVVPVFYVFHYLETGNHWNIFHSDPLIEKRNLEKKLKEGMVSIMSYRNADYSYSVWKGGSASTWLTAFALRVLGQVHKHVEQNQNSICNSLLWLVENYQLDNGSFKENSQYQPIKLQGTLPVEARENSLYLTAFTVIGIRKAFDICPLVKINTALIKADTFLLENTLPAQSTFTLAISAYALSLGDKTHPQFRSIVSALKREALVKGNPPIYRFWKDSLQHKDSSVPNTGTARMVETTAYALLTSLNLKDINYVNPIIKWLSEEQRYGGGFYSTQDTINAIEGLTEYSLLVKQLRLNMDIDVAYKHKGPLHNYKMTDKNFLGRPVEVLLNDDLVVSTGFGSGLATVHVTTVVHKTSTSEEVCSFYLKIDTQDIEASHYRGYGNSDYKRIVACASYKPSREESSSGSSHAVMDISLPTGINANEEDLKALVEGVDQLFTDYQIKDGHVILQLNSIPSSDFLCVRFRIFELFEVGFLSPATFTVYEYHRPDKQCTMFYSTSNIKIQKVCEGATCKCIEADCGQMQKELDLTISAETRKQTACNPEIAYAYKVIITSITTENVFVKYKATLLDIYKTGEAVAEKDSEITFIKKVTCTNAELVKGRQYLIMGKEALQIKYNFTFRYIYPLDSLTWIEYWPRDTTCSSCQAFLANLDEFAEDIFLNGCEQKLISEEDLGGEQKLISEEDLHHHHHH

human C5 [2] = biological target: T2, human C5 (human, UniProt P01031 19-1676); test: cell-based or functional assay
African green monkey C5 [3] = biological target: T3, African green monkey C5 (African green monkey); test: cell-based or functional assay
human C5 [4] = biological target: T2, human C5; test: cell-based or functional assay; remark: listed apart in the source
African green monkey C5 [5] = biological target: T3, African green monkey C5; test: cell-based or functional assay; remark: listed apart in the source
human C5 R885H-mmh [6] = biological target: T4, human C5 R885H-mmh (human, UniProt P01031 19-1676); test: cell-based or functional assay
human C5 R885C-mmh [7] = biological target: T5, human C5 R885C-mmh (human, UniProt P01031 19-1676); test: cell-based or functional assay
monkey C5-mmh [8] = biological target: T1, monkey C5-mmh; test: SPR (Biacore), mAb captured, dissociation of monkey C5 at pH7.4 vs pH6.0, 37°C
Cynomolgus monkey C5 = Cynomolgus monkey C5 (cynomolgus monkey, UniProt A0A2K5U1T1 19-1676); test: cell-based or functional assay
human C5 [9] = biological target: T2, human C5; test: SPR (Biacore), mAb captured, dissociation of human C5 at pH7.4 vs pH6.0, 37°C
Summary of the method: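 Anti-C5 mAbs (human IgG4 Fc) captured on an amine-coupled mouse anti-human Fc surface; recombinant C5 dissociation followed by Biacore T200 in PBS-T (0.01M phosphate, 0.15M NaCl, 0.05% Tween-20) at pH7.4 or pH6.0. Dissociative half-life (t½) calculated from kd.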

human C5 [10] = biological target: T2, human C5; test: cell-based or functional assay; remark: listed apart in the source
African green monkey C5 [11] = biological target: T3, African green monkey C5; test: cell-based or functional assay; remark: listed apart in the source
human C5 R885H-mmh [12] = biological target: T4, human C5 R885H-mmh; test: cell-based or functional assay; remark: listed apart in the source
human C5 R885C-mmh [13] = biological target: T5, human C5 R885C-mmh; test: cell-based or functional assay; remark: listed apart in the source
human C5 [14] = biological target: T2, human C5; test: cell-based or functional assay; remark: listed apart in the source

Binder | t½ Ratio pH7.4/pH6.0 (monkey C5-mmh [1]) | IC50, inhibition of CDC of Daudi cells, 1.66% human serum (human C5 [4]) | IC50, inhibition of CDC of Daudi cells, 1.66% African Green monkey serum (African green monkey C5 [5]) | IC50, inhibition of CDC of Daudi cells, C5 depleted human serum and 6.6 nM C5 Variant R885H (human C5 R885H-mmh [6]) | IC50, inhibition of CDC of Daudi cells, C5 depleted human serum and 6.6 nM C5 Variant R885C (human C5 R885C-mmh [7]) | t½ Ratio pH7.4/pH6.0 (monkey C5-mmh [8]) | t½ Ratio pH7.4/pH6.0 (human C5 [9]) | IC50, inhibition of CDC of Daudi cells, 1.66% African Green monkey serum, 10 nM anti-CD20 antibody (African green monkey C5 [11]) | Human AP % Max Inhibition, hemolysis assay, NHS (human C5 [2]) | Human AP IC50, hemolysis assay, NHS (human C5 [2]) | Human CP % Max Inhibition, hemolysis assay, NHS (human C5 [2]) | Human CP IC50, hemolysis assay, NHS (human C5 [2]) | AGM AP % Max Inhibition, hemolysis assay, 5% serum (African green monkey C5 [3]) | AGM CP % Max Inhibition, hemolysis assay, 5% serum (African green monkey C5 [3]) | AGM Serum AP IC50, hemolysis assay, 5% serum (African green monkey C5 [3]) | AGM Serum CP IC50, hemolysis assay, 5% serum (African green monkey C5 [3]) | Cyno AP % Max Inhibition, hemolysis assay, 5% serum (Cynomolgus monkey C5) | Cyno CP % Max Inhibition, hemolysis assay, 5% serum (Cynomolgus monkey C5) | Cyno Serum AP IC50, hemolysis assay, 5% serum (Cynomolgus monkey C5) | Cyno Serum CP IC50, hemolysis assay, 5% serum (Cynomolgus monkey C5) | further results
H4H12171P (antibody, human IgG4, V domains shown, H4H: human IgG4 Fc with S108P hinge mutation) VH: EVQLVESGGGVVRPGGSLRLSCAASGFTFDEYGMTWVRQVPGKGLEWVSGITWNGGFTDYTDSVKGRFTSSRDNAKNSLYLQMNSLRAEDTALYYCARDGYSSSWGAYDIWGQGTMVTVSS VL: DIQMTQSPSSLSASVGDRVTITCRASQSISTYLNWYQQKPGKAPKLLIYAASSLQSGVPLRFSGSGSGTDFTLTISSLQPEDFASYFCQQSYSTPYTFGQGTKLEIK | 2.1 | 1.9 nM | 3.3 nM | 1.6 nM | 0.65 nM | 4.7 | 3.7 |  | 42% | 15.5 nM | 94.9% | 2.33 nM | 69.7% | 17.8% | 23.3 nM |  | 98.8% | 92.9% | 7.2 nM | 8.7 nM | 
H4H12166P2 (antibody, human IgG4, V domains shown, histidine-mutated CDR variant of H4H12166P; human IgG4 (S108P)) VH: QVQLQESGPGLVKPSETLSLTCTVSGDSVSSSYWTWIRQPPGKGLEWIGYIYYSGSSNYNPSLKSRATISVDTSKNQFSLKLSSVTAADTAVYYCAREGNVDTTMIFDYWGQGTLVTVSS VL: AIQMTQSPSSLSASVGDRVTITCRASQGIRNDLGWYQQKPGKAPKLLIYAASSLQSGVPSRFAGRGSGTDFTLTISSLQPEDFATYYCHQDFNYPWTFGQGTKVEIK |  |  |  |  |  |  | 7.3 | 9.7 nM |  |  |  |  |  |  |  |  |  |  |  |  | IC50, inhibition of CDC of Daudi cells, 1.66% human serum, 2 nM anti-CD20 antibody (human C5 [10]): 3.7 nM; IC50, inhibition of CDC of Daudi cells, C5 depleted human serum and 6.6 nM C5 Variant R885H, 7 nM anti-CD20 antibody (human C5 R885H-mmh [12]): 1.7 nM; IC50, inhibition of CDC of Daudi cells, C5 depleted human serum and 6.6 nM C5 Variant R885C, 30 nM anti-CD20 antibody (human C5 R885C-mmh [13]): 1.2 nM; Human AP % Max Inhibition, hemolysis assay, 5% NHS (human C5 [14]): 81.3%; Human AP IC50, hemolysis assay, 5% NHS (human C5 [14]): 47.8 nM; Human CP % Max Inhibition, hemolysis assay, 5% NHS (human C5 [14]): 98.2%; Human CP IC50, hemolysis assay, 5% NHS (human C5 [14]): 15.9 nM

Now from value to binder, other results behind:

t½ Ratio pH7.4/pH6.0 (monkey C5-mmh [1]) | IC50, inhibition of CDC of Daudi cells, 1.66% human serum (human C5 [4]) | IC50, inhibition of CDC of Daudi cells, 1.66% African Green monkey serum (African green monkey C5 [5]) | IC50, inhibition of CDC of Daudi cells, C5 depleted human serum and 6.6 nM C5 Variant R885H (human C5 R885H-mmh [6]) | IC50, inhibition of CDC of Daudi cells, C5 depleted human serum and 6.6 nM C5 Variant R885C (human C5 R885C-mmh [7]) | t½ Ratio pH7.4/pH6.0 (monkey C5-mmh [8]) | t½ Ratio pH7.4/pH6.0 (human C5 [9]) | IC50, inhibition of CDC of Daudi cells, 1.66% African Green monkey serum, 10 nM anti-CD20 antibody (African green monkey C5 [11]) | Binder | Human AP % Max Inhibition, hemolysis assay, NHS (human C5 [2]) | Human AP IC50, hemolysis assay, NHS (human C5 [2]) | Human CP % Max Inhibition, hemolysis assay, NHS (human C5 [2]) | Human CP IC50, hemolysis assay, NHS (human C5 [2]) | AGM AP % Max Inhibition, hemolysis assay, 5% serum (African green monkey C5 [3]) | AGM CP % Max Inhibition, hemolysis assay, 5% serum (African green monkey C5 [3]) | AGM Serum AP IC50, hemolysis assay, 5% serum (African green monkey C5 [3]) | AGM Serum CP IC50, hemolysis assay, 5% serum (African green monkey C5 [3]) | Cyno AP % Max Inhibition, hemolysis assay, 5% serum (Cynomolgus monkey C5) | Cyno CP % Max Inhibition, hemolysis assay, 5% serum (Cynomolgus monkey C5) | Cyno Serum AP IC50, hemolysis assay, 5% serum (Cynomolgus monkey C5) | Cyno Serum CP IC50, hemolysis assay, 5% serum (Cynomolgus monkey C5) | further results
3.6 | 2.2 nM | 5.2 nM | 4.2 nM | > 20 nM | 0.4 | 0.9 |  | H4H12175P (antibody, human IgG4, V domains shown, H4H: human IgG4 Fc with S108P hinge mutation) VH: EVQLVESGGGVVQPGGSLRLSCAASGFTFNDYAMHWVRQAPGKGLEWVSLISGDGGNTYYADSVKGRLTISRDNSKNSLYLQMNSLRTEDTALYYCAKDKGWNFGYFDLWGRGTLVTVSS VL: DIQMTQSPSSLSTSVGDRVTITCRASQNIDTYLNWYQQKPGKAPKLLIYDASSLQSGVPSRFSGSGSGTDFTLTITSLQPEDFATYYCQQNDNILHPLTFGGGTKVEIK | 80.2% | 20 nM | 98% | 2.36 nM | 17.4% | 84.5% | 98.5 nM | 118 nM | 98.1% | 96.7% | 8.05 nM | 10.9 nM | 
2.9 | 2.4 nM | 5.8 nM | 1.8 nM | 0.82 nM | 1.1 | ≤ 0.1 |  | H4H12164P (antibody, human IgG4, V domains shown, H4H: human IgG4 Fc with S108P hinge mutation) VH: EVQLVESGGGLVRSGGSLRLSCAASGFTFNRYAMTWVRQAPGKGLEWVSAISGSGSSTYYTDSVKGRFTISRDNSKNSVDLQMHSLRVEDTAIYYCARGTTVTTGYGMDVWGQGTTVTVSS VL: DIQMTQSPSSLSASVGDRVTFTCQASQDITNSLNWYQQKPGRAPKLLIYDASYLKAGVPSRFSGSGSGTDFTFTISSLQPEDIATYYCQQYDDLPYTFGQGTKLEIK | 69.7% | 14.5 nM | 95.9% | 2.1 nM | 15.6% | 85.8% | 178 nM | 247 nM | 98.7% | 94.7% | 9.1 nM | 19.6 nM | 
 |  |  |  |  |  |  | > 30 nM | H4H12166P3 (antibody, human IgG4, V domains shown) VH: QVQLQESGPGLVKPSETLSLTCTVSGDSVSSSYWTWIRQPPGKGLEWIGYIYYSGSSNYNPSLKSRATISVDTSKNQFSLKLSSVTAADTAVYYCAREHNVDTTMIFDYWGQGTLVTVSS VL: AIQMTQSPSSLSASVGDRVTITCRASQGIRNDLGWYQQKPGKAPKLLIYAASSLQSGVPSRFAGRGSGTDFTLTISSLQPEDFATYYCLQDFNYPWTFGQGTKVEIK |  |  |  |  |  |  |  |  |  |  |  |  | Max % Inhibition of CDC of Daudi cells, 1.66% African Green monkey serum, 10 nM anti-CD20 antibody (African green monkey C5 [11]): 64%; IC50, inhibition of CDC of Daudi cells, C5 depleted human serum and 6.6 nM C5 Variant R885H, 7 nM anti-CD20 antibody (human C5 R885H-mmh [12]): 2.9 nM; IC50, inhibition of CDC of Daudi cells, C5 depleted human serum and 6.6 nM C5 Variant R885C, 30 nM anti-CD20 antibody (human C5 R885C-mmh [13]): 1.7 nM
